Laboratory results published in US11746336B2, “Producing 3-hydroxycarboxylic acid and ketone using polyketide synthases” (The Regents of the University of California, priority 2014, dated 2023).

Experiments:
[1] = target: T1, LipPks1+TE (Kitasatospora aureofaciens, UniProt Q30CS2); assay: Steady-state kinetic analysis of LipPks1+TE, extension substrate; assay type: biochemical, Streptomyces aureofaciens Tü117; settings: tested as potential extender substrate (data not shown)
Protocol: Each time point was set up in a reaction volume of 75 μL. Samples containing 10 μM, 20 μM, or 40 μM methylmalonyl-CoA were individually incubated with 500 μM isovaleryl-CoA and 500 μM NADPH in the presence of 0.5 μM LipPks1+TE in 100 mM phosphate buffer, pH 7.2, containing 2.5 mM TCEP at 23° C. The reactions were quenched at different time points by adding 75 μL of methanol and subsequently filtered with an Amicon Ultra-0.5 mL Centrifugal Filter, 3K device (Millipore) at 23° C. 10 μL of the resulting solutions were analyzed by LC-MS. Authentic standard 1e was used to quantify the products in the LC-MS analysis. We assumed that ionization efficiencies of diastereomers were identical.
LC separation of the enzymatically generated products conducted at 50° C. with an Inertsil ODS-3 reverse-phase column (250 mm length, 2.1 mm internal diameter, […] particle size; GL Sciences) using a 1100 series high-performance liquid chromatography system (Agilent Technologies). The mobile phase was composed of 0.2% formic acid in water (solvent A) and 0.2% formic acid in methanol (solvent B). Products were separated using the following gradient: 60% to 100% B for 10 min, held at 100% B for 2 min, 100% to 60% B for 1 min, held at 60% B for 17 min. A flow rate of 0.14 mL/min was used throughout. […]

[2] = target: T1, LipPks1+TE; assay: Steady-state kinetic analysis of LipPks1+TE, starter substrates (LC-MS quantification of products 1a-f); assay type: biochemical, Streptomyces aureofaciens Tü117
Protocol: (§1) A Bradford protein assay was used to measure the concentration of LipPks1+TE. […] Each time point was set up in a reaction volume of 75 μL. Samples containing 20 μM, 40 μM, 80 μM, 160 μM, or 320 μM of acyl-CoA were individually incubated with 200 μM methymalonyl-CoA and 500 μM NADPH in the presence of 0.5 μM LipPks1+TE in 100 mM phosphate buffer, pH 7.2, containing 2.5 mM TCEP at 23° C. The reactions were quenched at different time points by adding 75 μL of methanol and subsequently filtered with an Amicon Ultra-0.5 mL Centrifugal Filter, 3K device (Millipore) at 23° C. 10 μL of the resulting solutions were analyzed by liquid chromatography-mass spectrometry (LC-MS). […] We assumed that ionization efficiencies of diastereomers were identical.
(§2) LC separation of the enzymatically generated products conducted at 50° C. with an Inertsil ODS-3 reverse-phase column (250 mm length, 2.1 mm internal diameter, 3 μM particle size; GL Sciences) using a 1100 series high-performance liquid chromatography system (Agilent Technologies). The mobile phase was composed of 0.2% formic acid in water (solvent A) and 0.2% formic acid in methanol (solvent B). Products were separated using the following gradient: 60% to 100% B for 10 min, held at 100% B for 2 min, 100% to 60% B for 1 min, held at 60% B for 17 min. A flow rate of 0.14 mL/min was used throughout.
(§3) The LC system was coupled to an Agilent Technologies LC-MSD SL electrospray ionization mass (ESI MS) spectrometer. Nitrogen gas was used as both the nebulizing and drying gas to facilitate the production of gas-phase ions. The drying and nebulizing gases were set to 10 L/min and 20 lb/in2, respectively, and a drying gas temperature of 300° C. was used throughout. ESI was conducted in the negative-ion mode with a capillary voltage of 4 kV. […] The instrument was tuned for a range of m/z 50 to 3000 via the Agilent ES tuning mix. Data acquisition and processing were performed by an Agilent Chemstation (Agilent Technologies; Santa Clara, Calif.).

[3] = tested on: CC(C)CC(=O)SCCNC(=O)CCNC(=O)[C@H](O)C(C)(C)COP(=O)(O)OP(=O)(O)OC[C@H]1O[C@@H](n2cnc3c(N)ncnc32)[C@H](O)[C@@H]1OP(=O)(O)O; assay: as above; assay type: biochemical, Streptomyces aureofaciens Tü117; settings: other: KM of the starter acyl-CoA, 200 μM methylmalonyl-CoA, 500 μM NADPH, 0.5 μM LipPks1+TE, pH 7.2, 23° C.
Protocol: as §1, §2, §3

[4] = tested on: CC(C)(C)C(=O)SCCNC(=O)CCNC(=O)[C@H](O)C(C)(C)COP(=O)(O)OP(=O)(O)OC[C@H]1O[C@@H](n2cnc3c(N)ncnc32)[C@H](O)[C@@H]1OP(=O)(O)O; assay: as above; assay type: biochemical, Streptomyces aureofaciens Tü117; settings: other: KM of the starter acyl-CoA, 200 μM methylmalonyl-CoA, 500 μM NADPH, 0.5 μM LipPks1+TE, pH 7.2, 23° C.
Protocol: as §1, §2, §3

[5] = tested on: CCC(=O)SCCNC(=O)CCNC(=O)[C@H](O)C(C)(C)COP(=O)(O)OP(=O)(O)OC[C@H]1O[C@@H](n2cnc3c(N)ncnc32)[C@H](O)[C@@H]1OP(=O)(O)O; assay: as above; assay type: biochemical, Streptomyces aureofaciens Tü117; settings: other: KM of the starter acyl-CoA, 200 μM methylmalonyl-CoA, 500 μM NADPH, 0.5 μM LipPks1+TE, pH 7.2, 23° C.
Protocol: as §1, §2, §3

[6] = tested on: CC(C)C(=O)SCCNC(=O)CCNC(=O)[C@H](O)C(C)(C)COP(=O)(O)OP(=O)(O)OC[C@H]1O[C@@H](n2cnc3c(N)ncnc32)[C@H](O)[C@@H]1OP(=O)(O)O; assay: as above; assay type: biochemical, Streptomyces aureofaciens Tü117; settings: other: KM of the starter acyl-CoA, 200 μM methylmalonyl-CoA, 500 μM NADPH, 0.5 μM LipPks1+TE, pH 7.2, 23° C.
Protocol: as §1, §2, §3

[7] = tested on: CCCC(=O)SCCNC(=O)CCNC(=O)[C@H](O)C(C)(C)COP(=O)(O)OP(=O)(O)OC[C@H]1O[C@@H](n2cnc3c(N)ncnc32)[C@H](O)[C@@H]1OP(=O)(O)O; assay: purified protein, by the assay type; settings: other: KM of the starter acyl-CoA, 200 μM methylmalonyl-CoA, 500 μM NADPH, 0.5 μM LipPks1+TE, pH 7.2, 23° C.

Question: `CC(C)(COP(=O)(O)OP(=O)(O)OC[C@H]1O[C@@H](n2cnc3c(N)ncnc32)[C@H](O)[C@@H]1OP(=O)(O)O)[C@@H](O)C(=O)NCCC(=O)NCCSC(=O)CC(=O)O` [Malonyl-CoA] was tested. Which “acceptance as extender substrate by the AT domain” value [1] did it give?
Answer: not accepted

Question: For `CC(=O)SCCNC(=O)CCNC(=O)[C@H](O)C(C)(C)COP(=O)(O)OP(=O)(O)OC[C@H]1O[C@@H](n2cnc3c(N)ncnc32)[C@H](O)[C@@H]1OP(=O)(O)O` [acetyl-CoA], which “product formation with starter substrate” value ([2]; 200 μM methylmalonyl-CoA with NADPH (data not shown)) is on record?
Answer: No product was observed

Question: For `CC(C)C(=O)SCCNC(=O)CCNC(=O)[C@H](O)C(C)(C)COP(=O)(O)OP(=O)(O)OC[C@H]1O[C@@H](n2cnc3c(N)ncnc32)[C@H](O)[C@@H]1OP(=O)(O)O` [isobutyryl-CoA], which kcat ([2]; starter acyl-CoA 20-320 μM, 200 μM methylmalonyl-CoA, 500 μM NADPH, 0.5 μM LipPks1+TE, pH 7.2, 23° C.) is on record?
Answer: 0.000883 s⁻¹

Question: What does the source list for LipPks1+TE (Kitasatospora aureofaciens)?
Answer: Km [3]: 128.1 µM; kcat [3]: 0.00483 s⁻¹; kcat/Km [3]: 38 M⁻¹ s⁻¹; Km [4]: 8.8 µM; kcat [4]: 3.33e-05 s⁻¹; kcat/Km [4]: 4.1 M⁻¹ s⁻¹; Km [5]: 13.4 µM; kcat [5]: 0.000933 s⁻¹; kcat/Km [5]: 70.3 M⁻¹ s⁻¹; Km [6]: 2.9 µM; kcat [6]: 0.000883 s⁻¹; kcat/Km [6]: 304.1 M⁻¹ s⁻¹; Km [7]: 26.4 µM; kcat [7]: 0.0006 s⁻¹; kcat/Km [7]: 22.7 M⁻¹ s⁻¹
